Results published in patent US8501487B2, “Composition for use as a peptide retention standard and a method of predicting peptide hydrophobicity in liquid chromatography” (University of Manitoba, priority 2008, dated 2013).
Where two headings read alike, the source gives them in different places.

Experiments:
[1] = Isocratic RP HPLC: log k vs φ plots, UHI (acetonitrile concentration at k=10) and S slope; format: physicochemical; conditions: for UHI 100 Å C18 − TFA / UHI 100 Å C18 − FA / UHI 300 Å C18 − TFA / UHI 100 Å C18 − pH 10: acetonitrile concentration (ACN %) at k=10, isocratic, in %; for UHI 100 Å C18 − TFA: 0.1% TFA; for UHI 100 Å C18 − TFA / UHI 100 Å C18 − FA / UHI 300 Å C18 − TFA: ~25° C.; for UHI 100 Å C18 − FA: 0.1% formic acid; for UHI 300 Å C18 − TFA: Vydac 218 TP C18, 0.1% TFA; for UHI 100 Å C18 − pH 10: XTerra C18, 20 mM ammonium formate pH 10, ~25° C.; for S value (slope in LSS equation): isocratic, TFA, pH 2
Text: Accordingly, in a further embodiment of the present disclosure there is included, a method of predicting hydrophobicity of a peptide: • (a) measuring retention time for each peptide of a standard peptide mixture at three or more different concentrations of acetonitrile under isocratic conditions; • (b) calculating a retention coefficient k for each peptide in the mixture and at each concentration of acetonitrile using equation (2) k=(tR−tO)/TOc (2) • wherein • tR is the retention time, • tO is system dead time, and • TOc is column dead time; • (c) for each peptide in the mixture, plotting log k vs φ, wherein φ is the acetonitrile volume fraction; • (d) for each peptide in the mixture, determining the value of φ when log k=1 and converting this to acetonitrile concentration to provide a universal hydrophobicity index (UHI); • (e) plotting retention times of each peptide vs its UHI; • (f) determining the retention time of an unknown peptide under the isocratic liquid chromatographic conditions; and • (g) determining from the plot in (e) the value of UHI that corresponds to the retention time of the unknown peptide, • wherein the UHI correlates to the hydrophobicity of the unknown peptide.
Two chromatographic setups: micro-flow 3 μl/min and “semi-micro” at 150 μl/min were employed utilizing a micro-Agilent 1100 Series system (Agilent Technologies, Wilmington, Del.) with two column sizes: 300 μm×150 mm (micro) and 1 mm×100 mm (semi-micro). The three stationary phases studied included: Vydac 218 TP C18, 300 Å pore size, 5 μm (Grace Vydac, Hesperia, Calif.); Luna C18(2) 100 Å, 5 μm (Phenomenex, Torrance, Calif.) and XTerra C18, 120 Å, 5 μm (Waters, Milford, Mass.). Three different ion-pairing systems with linear water-acetonitrile gradients were employed: 0.1% trifluoroacetic acid (TFA) in both eluents A and B (Vydac and Luna), 0.1% formic acid (FA, Luna) and 20 mM ammonium formate pH 10 (XTerra). This provided us with four different mobile/stationary phase combinations corresponding to four versions of SSRCalc model: 100 and 300 Å for TFA, 100 Å with FA and 100 Å at pH 10. Gradient separations of the 6-peptide mixture in “semi-micro” flow mode were performed in all four systems using 0.5, 1, 2 and 4% acetonitrile per minute gradient slopes.
Stock solutions of the 6 custom peptides (˜1 mg/ml) were prepared by dissolving in 1 ml of 0.1% TFA in water (20% acetonitrile for peptides #5 and 6). Ten microliters sample injection was applied for “semi-micro” conditions in both isocratic and gradient modes. Individual peptides, their mixture and the S1-S5 retention standard were diluted to provide ˜0.5-1 μg injection of each component. 214 nm UV detection was used. All chromatographic experiments were conducted at room temperature, ˜25° C. Dead volume of the column and connecting tubings was measured using injection of non-retained compound (water) and measuring elution time of negative peak. Retention coefficients for isocratic elution were calculated using the formula: k=(tR−t0)/t0c; where tR is retention time, t0 and t0c—system (column and tubings) and column dead time.
Since accurate measurement of ACN % hydrophobicity using gradient elution is problematic it is proposed to use isocratic conditions for this purpose. […] This confirms once again that peptides elute from reversed-phase sorbents within a very narrow range of acetonitrile concentration. It is clear as well that the slope of these dependencies decrease systematically as peptide hydrophobicity increase. This is the reason for narrowing ACN percentage scale for shallow gradients in FIG. 2.
It is proposed to use acetonitrile concentration at which the capacity factor of any given peptide is equal to 10 (at room temperature ˜25° C.) as a measure of peptide hydrophobicity. This value is referred to herein as peptide Universal Hydrophobicity Index (UHI), since it depends only on type of the sorbent and ion-pairing modifier. […]

[2] = rhGH tryptic digest, literature data; cited from earlier work
[3] = Gradient RP HPLC: acetonitrile concentration at elution and ACN % range covered; format: physicochemical; conditions: gradient conditions (FIG. 2c), Luna C18(2), 0.1% TFA, gradient delay time 4.3 min taken into account
Text: A one percent per minute acetonitrile gradient starting from 0% was used for all separations. The retention time difference between first and last peaks on chromatograms gives direct indication of ACN % scale covered. […] Such wide coverage is very important, especially for nano- and micro-flow proteomics LC applications. While normal-flow gradient system technology is well established, in nano scale LC gradient reproducibility is harder to achieve. The correct retention time distribution of the standard peptides of the present disclosure confirms the proper development of the gradient, especially at the beginning of the chromatogram. Also note the uniform distribution of the six peaks of the peptide composition of the present disclosure throughout the chromatogram; such uniformity is rarely observed in standard peptide mixtures derived from protein digests. […]
Stock solutions of the 6 custom peptides (˜1 mg/ml) were prepared by dissolving in 1 ml of 0.1% TFA in water (20% acetonitrile for peptides #5 and 6). […] Dead volume of the column and connecting tubings was measured using injection of non-retained compound (water) and measuring elution time of negative peak. Retention coefficients for isocratic elution were calculated using the formula: k=(tR−t0)/t0c; where tR is retention time, t0 and t0c—system (column and tubings) and column dead time. […]

| Substance | UHI 100 Å C18 − TFA ([1]; Luna C18(2)) | UHI 100 Å C18 − FA ([1]; Luna C18(2)) | UHI 300 Å C18 − TFA [1] | UHI 100 Å C18 − pH 10 [1] | S value (slope in LSS equation) [2] | S value (slope in LSS equation) ([1]; Luna C18(2)) | acetonitrile concentration at k=10 ([1]; isocratic conditions, Luna C18(2), TFA (FIG. 3)) [%] | concentration of acetonitrile required for elution [3] [%] |
| --- | --- | --- | --- | --- | --- | --- | --- | --- |
| LGGGGGGDGSR [custom synthesized standard peptide] | 3.97 | <0 | 1.89 | 1.14 |  |  |  |  |
| QTYSK [Peptide T14, tryptic digest product of recombinant human growth hormone] |  |  |  |  | 24.3 |  |  |  |
| ALILTLVS [peptide purchased from Bachem, singly charged at pH 2, reference compound] |  |  |  |  |  | 13.47 |  |  |
| LGGGGGGDFR [custom synthesized standard peptide] | 10.74 | 4.58 | 8.40 | 6.80 |  |  |  |  |
| LLLGGDFR [custom synthesized standard peptide] | 20.72 | 13.08 | 18.90 | 18.29 |  |  |  |  |
| LLLLLDFR [custom synthesized standard peptide] | 29.58 | 21.59 | 28.60 | 28.94 |  |  |  |  |
| ISLLLIQSWLEPVQFLR [Peptide T9, tryptic digest product of recombinant human growth hormone] |  |  |  |  | 18.5 |  |  |  |
| LLGGGGDFR [custom synthesized standard peptide] | 15.53 | 8.55 | 13.35 | 13.65 |  |  |  |  |
| LLLLDFR [custom synthesized standard peptide] | 26.07 | 18.26 | 24.78 | 24.18 |  | 14.69 | 26.1 | 29.6 |
